In the Human Domainome abundance scans (Beltran et al. 2025):
± gives the uncertainty stated by the source.

B1: COUP transcription factor 1, residues 83 to 159; numbered along this chain, P10589 (parent)
chain: HIECVVCGDKSSGKHYGQFTCEGCKSFFKRSVRRNLTYTCRANRNCPIDQHHRNQCQYCRLKKCLKVGMRREAVQRG

Variants of: B1
Experiment: abundance fitness (aPCA) (normalised: wild type 0, dead -1); higher = more abundant; growth selection in yeast, the domain comes from the species named
Settings: Homo sapiens

Variant | abundance fitness
HIECVVCGDKSSGKHYGQFTNEGCKSFFKRSVRRNLTYTCRANRNCPIDQHHRNQCQYCRLKKCLKVGMRREAVQRG | -0.61 ± 0.19
HIECVVCGDKSSGKHYGQFTQEGCKSFFKRSVRRNLTYTCRANRNCPIDQHHRNQCQYCRLKKCLKVGMRREAVQRG | -0.371 ± 0.12
HIECVVCGDKSSGKHYGQFTCEGSKSFFKRSVRRNLTYTCRANRNCPIDQHHRNQCQYCRLKKCLKVGMRREAVQRG | -0.901 ± 0.13
HIECVVCGDKSSGKHYGQFTCEGCKSFFKRSVRRNLTYMCRANRNCPIDQHHRNQCQYCRLKKCLKVGMRREAVQRG | -0.126 ± 0.18
HIECVVCGDKSSGKHYGQFTCEGCKCFFKRSVRRNLTYTCRANRNCPIDQHHRNQCQYCRLKKCLKVGMRREAVQRG | -0.127 ± 0.12
HIECVVCGDKSSGKHYGQFHCEGCKSFFKRSVRRNLTYTCRANRNCPIDQHHRNQCQYCRLKKCLKVGMRREAVQRG | -0.541 ± 0.16
HIECVVCGDKSSGKHYNQFTCEGCKSFFKRSVRRNLTYTCRANRNCPIDQHHRNQCQYCRLKKCLKVGMRREAVQRG | -0.165 ± 0.21
HIECVVCGDKSSGKHYGQFTCEGCKSFFKRSVRRNLTYTCRANRNCPIDQHHRNQCQYCRLMKCLKVGMRREAVQRG | -0.003 ± 0.049
HIECVVCGDKSSGKHYGQFTCEGCKSFFKRSLRRNLTYTCRANRNCPIDQHHRNQCQYCRLKKCLKVGMRREAVQRG | -0.26 ± 0.066
HIECVVCGDKSSGKHYGQFTCEGCKSFFKRSDRRNLTYTCRANRNCPIDQHHRNQCQYCRLKKCLKVGMRREAVQRG | -0.265 ± 0.1
HIECVVCGDKSSGKHYGQFTCEGCKSFFKRSVRRNLWYTCRANRNCPIDQHHRNQCQYCRLKKCLKVGMRREAVQRG | 0.138 ± 0.064
HIECVVCGDKSSGKHYGQFTCEGCKSFFKRSVRRNLGYTCRANRNCPIDQHHRNQCQYCRLKKCLKVGMRREAVQRG | 0.06 ± 0.054
HIECVVCGDKSSGKHYGQFTCEGCKSFFKNSVRRNLTYTCRANRNCPIDQHHRNQCQYCRLKKCLKVGMRREAVQRG | -0.028 ± 0.22
HIECVVCGDKSSGKHYGQFTCEGCKSFFLRSVRRNLTYTCRANRNCPIDQHHRNQCQYCRLKKCLKVGMRREAVQRG | -0.186 ± 0.054
HIECVVCGDKSSGKHYGQFTCEGCKSFFKRSVRRLLTYTCRANRNCPIDQHHRNQCQYCRLKKCLKVGMRREAVQRG | -0.513 ± 0.14
HIRCVVCGDKSSGKHYGQFTCEGCKSFFKRSVRRNLTYTCRANRNCPIDQHHRNQCQYCRLKKCLKVGMRREAVQRG | -0.408 ± 0.049
HIECVVCGDKSSGKHYGQFTCEGCKSFFKRSVRRNLTYTCRANRNCPIDQHHRNQCQYCRLKKCLKVGMRREAVYRG | -0.219 ± 0.093
HIECVVCGDKSSGKHYGQFTCEGCKSFFKRSVRRNLTYTCRANRNCPIDQHHRNQCQYCRLKACLKVGMRREAVQRG | -0.254 ± 0.045

Variant | abundance fitness
HIECVVCNDKSSGKHYGQFTCEGCKSFFKRSVRRNLTYTCRANRNCPIDQHHRNQCQYCRLKKCLKVGMRREAVQRG | -0.045 ± 0.49
HIECVVCGDKSSGKHYGQFTCEGCKSFFKRSVRRNLTYTCRANRNCPIDQHHRNQCQYCMLKKCLKVGMRREAVQRG | 0.283 ± 0.038
HIECVVCGDKSSGKHYGVFTCEGCKSFFKRSVRRNLTYTCRANRNCPIDQHHRNQCQYCRLKKCLKVGMRREAVQRG | 0.261 ± 0.046
HIECVVCGDKSSGKHYGQFTCEGCWSFFKRSVRRNLTYTCRANRNCPIDQHHRNQCQYCRLKKCLKVGMRREAVQRG | 0.003 ± 0.044
HIECVVDGDKSSGKHYGQFTCEGCKSFFKRSVRRNLTYTCRANRNCPIDQHHRNQCQYCRLKKCLKVGMRREAVQRG | -0.867 ± 0.21
HIECVVCGDKSSGKHYGQFTCEGCKSFFKRSVRRNLTYTCSANRNCPIDQHHRNQCQYCRLKKCLKVGMRREAVQRG | 0.176 ± 0.057
HIECVVCGDKSSGKHYGQFTCEGCKSFFKRSVRRNLTYTCRANRNCPGDQHHRNQCQYCRLKKCLKVGMRREAVQRG | -0.466 ± 0.071
HIECVVCGDKSSGKHYGQFTCEGCKSFFKRSVRRNLTYTCRANRNCPIDQHHRNQCQYCRLKKCLKVGMRREHVQRG | 0.038 ± 0.064
SIECVVCGDKSSGKHYGQFTCEGCKSFFKRSVRRNLTYTCRANRNCPIDQHHRNQCQYCRLKKCLKVGMRREAVQRG | -0.33 ± 0.18
HIECVVCGDKSSGKHYGQFTCEGCKSFFKRSVRRNLTYTCRANRNCPIDQHHDNQCQYCRLKKCLKVGMRREAVQRG | 0.055 ± 0.093
HIECVVCGDKSSGKHYGQFTCEGCKSFFKRSVRRNLTYTCRANRNCPIDQHHRNQCQYCRLKKILKVGMRREAVQRG | -0.928 ± 0.25
HEECVVCGDKSSGKHYGQFTCEGCKSFFKRSVRRNLTYTCRANRNCPIDQHHRNQCQYCRLKKCLKVGMRREAVQRG | -0.379 ± 0.18
HIECVVCGDKSSGKHYGQFTCEGCKSFPKRSVRRNLTYTCRANRNCPIDQHHRNQCQYCRLKKCLKVGMRREAVQRG | -1.04 ± 0.33
HIECVVCGDKSSGKHYGQFTCEGCKSFEKRSVRRNLTYTCRANRNCPIDQHHRNQCQYCRLKKCLKVGMRREAVQRG | -0.539 ± 0.093
HIECVVCGDKSSRKHYGQFTCEGCKSFFKRSVRRNLTYTCRANRNCPIDQHHRNQCQYCRLKKCLKVGMRREAVQRG | -0.243 ± 0.049
HIECVQCGDKSSGKHYGQFTCEGCKSFFKRSVRRNLTYTCRANRNCPIDQHHRNQCQYCRLKKCLKVGMRREAVQRG | -0.802 ± 0.29
HIECVVCGDKSSGKHYGQFTCEGCKSHFKRSVRRNLTYTCRANRNCPIDQHHRNQCQYCRLKKCLKVGMRREAVQRG | -0.634 ± 0.39
HIECVVCGDKSSGKTYGQFTCEGCKSFFKRSVRRNLTYTCRANRNCPIDQHHRNQCQYCRLKKCLKVGMRREAVQRG | -0.28 ± 0.25
